One assay addresses T1, human KLRG1 ECD (human, UniProt Q96E93 60-186, biotinylated in the OCTET assay, site not stated).
T1 construct: Recombinant proteins were made as FC fusion or as HIS tagged versions; also called Human-KLRG-ECD
T1 sequence: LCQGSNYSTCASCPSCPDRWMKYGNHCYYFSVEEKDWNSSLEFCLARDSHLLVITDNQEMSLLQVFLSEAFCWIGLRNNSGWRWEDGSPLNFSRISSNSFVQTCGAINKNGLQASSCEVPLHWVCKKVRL
Briefly: BLI (OCTET), biotinylated antigen on streptavidin sensor, 1:1 fit. As to the method:
(§1) Binding kinetics of humanized antibodies for human and cynomolgus KLRG1 were determined by OCTET® measurement. OCTET® Systems use Bio-Layer Interferometry (BLI) technology to monitor the binding of proteins and other biomolecules to their partners directly in real time, providing analysis of kinetic binding constants. See https.//www.fortebio.com/bli-technology.html, the contents of which, including all links and sublinks associated therewith, is incorporated by reference herein in its entirety. The experimental set-up consists of immobilizing biotinylated recombinant antigen (Human-KLRG-ECD or cynomolgus-KLRG1-ECD) on streptavidin OCTET® sensor to produce antigen loaded sensors. The loaded sensors are the exposed to varying concentrations of each humanized antibody from 100 to 0.1 nM in the OCTET® instruments and data collected for 600 seconds to measure association kinetic (Kₒₙ) of the antibody/antigen complex. […] Kinetic binding parameters derived by this method are summarized in Table 9 for the three humanized antibodies.

In assay [1] the target is T2, cynomolgus KLRG1 ECD (cynomolgus, biotinylated in the OCTET assay, site not stated).
T2 construct: Recombinant proteins were made as FC fusion or as HIS tagged versions; also called cynonolgus KLRG1 ECD
T2 chain: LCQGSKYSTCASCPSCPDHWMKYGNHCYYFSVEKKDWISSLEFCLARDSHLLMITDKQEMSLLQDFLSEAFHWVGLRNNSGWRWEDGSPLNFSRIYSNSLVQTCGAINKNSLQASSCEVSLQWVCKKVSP
The assay is described as above. As to the method:
as §1

Assay [2] addresses T3, full length human KLRG1 (human, UniProt Q96E93 1-195).
T3 sequence (looked up): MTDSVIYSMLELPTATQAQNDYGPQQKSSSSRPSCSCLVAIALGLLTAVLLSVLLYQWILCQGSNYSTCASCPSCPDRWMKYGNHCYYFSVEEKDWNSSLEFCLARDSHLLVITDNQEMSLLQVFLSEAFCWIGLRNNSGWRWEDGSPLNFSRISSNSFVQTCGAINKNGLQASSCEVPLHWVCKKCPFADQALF
Kind of assay: cell-based or functional assay.

The target in assay [3] is T3, full length human KLRG1. Briefly: cell-based or functional assay. The source holds these as a separate data set.
For assay [4], the target named is T3, full length human KLRG1. Briefly: FACS on CHO-human-KLRG1 cells. The protocol: (§2) Binding of anti-KLRG1 monoclonal antibodies to cell expressed human and cynomolgus-KLRG1 was carried out by FACS. Chinese hamster ovary (CHO) cells were stably transfected to express full length human KLRG1 (CHO-human-KLRG1) and cynomolgus KLRG1 (CHO-cynomolgus-KLRG1).
For assay [5], the target named is T4, full length cynomolgus KLRG1 (cynomolgus, UniProt A0A2K5WAP9 1-186).
T4 construct: whole, on cells; also called Cyno KLRG1; CHO-cynomolgus-KLRG1
T4 sequence: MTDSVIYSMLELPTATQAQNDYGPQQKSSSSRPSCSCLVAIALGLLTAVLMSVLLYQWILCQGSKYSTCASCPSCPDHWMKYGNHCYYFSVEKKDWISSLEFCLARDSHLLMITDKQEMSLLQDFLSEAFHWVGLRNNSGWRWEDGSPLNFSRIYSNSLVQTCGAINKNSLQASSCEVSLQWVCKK
Briefly: FACS on CHO-cynomolgus-KLRG1 cells. The protocol:
as §2

Assay [6] deals with T2, cynomolgus KLRG1 ECD. Kind of assay: hybridoma screen for binding to KLRG1 ECD.
Assay [7] deals with T3, full length human KLRG1. Kind of assay: FACS competition, loss of HIS tagged E-cadherin binding to CHO-hKLRG1 cells. The protocol:
(§3) The ability of monoclonal antibodies to inhibit E-cadherin/KLRG1 binding was measured by FACS. Binding of E-cadherin to CHO-hKLRG1 cells was first determined by incubating the KLRG1 expressing cells with varying concentration of HIS tagged recombinant E-cadherin and detected by FACS with anti-HIS detection antibody.

Assay [8] has as its target T3, full length human KLRG1. Kind of assay: E-cadherin binding inhibition study, FACS on CHO-hKLRG1 cells; labels of Table 12 stand one row too low, value agrees with ABC_G1N07 in Table 8. The protocol:
as §3
IC50 values for each antibody were derived from E-cadherin binding inhibition studies and plotted against IFNγ production levels measured in CD8+ T cells IFNγ release assays.

Assay [9] addresses T3, full length human KLRG1. Kind of assay: FACS, HIS tagged E-cadherin on CHO-hKLRG1 cells, anti-HIS detection. As to the method:
as §3
(In general: A flow cytometer gives signals particle by particle.)

B1: ABC_HG1N07 (antibody, IgG1, V domains shown)
VH: QVQLVESGGGLVKPGGSLRLSCAASGFTFRNYAMSWIRQTPGKGLEWVATISESGNYNNYPDNVKGRLTISRDNAKNSLYLQMNSLKAEDTAVYYCVRDDWEGRAMDYWGQGTTVTVSS
VL: DIQMTQSPSSLSASVGDRVTITCRASRDIGSSLNWYQQKPGGAPKRLIYATSSLDSGVPKRFSGSGSGTDFTLTISSLQSEDFATYYCLQYASSPWTFGQGTKVEIKR
Broadly, the Kd is the constant that tells how readily two partners part at equilibrium. Read a low Kd as a tighter complex. The term koff denotes a measure of how fast the partners let go of each other. In general, kon refers to a measure of how fast the partners come together. Read a low kon as slow association. Take B1: in the assay with human KLRG1 ECD, the Kd was under 0.0051 nM, the koff is under 1e-05 s⁻¹ and the kon was 1.97e+06 M⁻¹ s⁻¹. In the assay with cynomolgus KLRG1 ECD [1], this molecule yielded a Kd of 1.42 nM, a koff of 0.00125 s⁻¹ and a kon of 880000 M⁻¹ s⁻¹.

B2: ABC_G1N01 (antibody, V domains shown)
VH: QVILKESGPGILQPSQTLSLTCSFSGFSLTTFGMGIGWIRHPSGKALEWLAHIWWNDDKSYNSALKSRLTISKDTSKNQVFLRLANVATADTATYYCARTIYYGNYLTFYAMEHWGQGTSVTVSS
VL: DVLLTQTPLSLPVSLGDQASISCRSSQNIVHSNGNTYLEWYLLKPGQSPKLLIFKVSNRFSGVPDKFSGSGSGTDFTLKIRRVEAEDLGIYYCFQGSHVPPTFGAGTKLELK
notes: Mouse hybridoma monoclonal antibody
By EC50 is commonly meant the concentration needed to bring the measured effect to its halfway point. A lower EC50 goes with an effect from little substance. A word on the IC50: it is the concentration needed to halve the response being measured. B2: in the assay with full length human KLRG1 [2], the “IFNγ released (pg/ml), Sample 1” value was found to be 1190 pg/mL and the “IFNγ released (pg/ml), Sample 2” value was found to be 1220 pg/mL. The “IFNγ” value with full length human KLRG1 [3] came to 1200 pg/mL. Moreover, the EC50 in the assay with full length human KLRG1 [4] was 1.21 nM. The molecule also registered an EC50 in assay [5] of 1.45 nM. For the same molecule, in the assay with cynomolgus KLRG1 ECD [6], the binding result was “binds”. The IC50 with full length human KLRG1 [7] is 12.2 nM.

B3: ABC_G1N06 (antibody, V domains shown)
VH: QVQLKQSGPGLVQPSQSLSITCTVSGFSLTTHAVHWVRQSPGKGLDWLGVIWSGGNTDYNAAFISRLTISKDNSKSQVFFKMNSLQADDTAIYYCVRLLLPAMDYWGQGTSVTVSS
VL: QIVLTQSPAIMSASLGERVTMTCTATSSVSSTYLHWYRQKPGSSPKLWIYSTSTLASGVPVRFRGSGSGTSYSLTISSMEAEDAATYYCHQYRRSPYTFGGGTKLEIK
notes: as for B2
In the case of B3, the “IFNγ released (pg/ml), Sample 1” value with full length human KLRG1 [2] turned out to be 1020 pg/mL. For the same molecule, the “IFNγ released (pg/ml), Sample 2” value in the assay with full length human KLRG1 [2] stood at 1140 pg/mL. For the same molecule, the figures for the EC50 (with full length human KLRG1 [4]; in [5]) were 1.43 nM and 1.5 nM, respectively. In the assay with cynomolgus KLRG1 ECD [6], the binding result is listed as “binds”. Besides, in the assay with full length human KLRG1 [7], the IC50 stood at 41 nM.

B4: ABC_G1N07 (antibody, V domains shown)
VH: EVQLVESGGGLVKPGGSLKLSCTASGFTFRNYAMSWVRQTPEKRLEWVATISESGNYNNYPDNVKGRLTISRDNAKNNLYLQMSLLKSEDTAMYYCVRDDWEGRAMDYWGQGTSVTVSS
VL: GIQMTQSPSSLSASLGERVSLTCRASRDIGSSLNWLQQKPDGTIKRLIYATSSLDSGVPKRFSGSRSGTDYSLTISSLESEDFVDYFCLQYASSPWTFGGGTKLEIK
notes: as for B2
Regarding B4, the “IFNγ released (pg/ml), Sample 1” value with full length human KLRG1 [2] came to 1580 pg/mL. In the assay with full length human KLRG1 [2], the “IFNγ released (pg/ml), Sample 2” value was determined as 1390 pg/mL. Besides, the “IFNγ” value in the assay with full length human KLRG1 [3] amounted to 1480 pg/mL. Moreover, the half-maximal effective concentration (EC50) in the assay with full length human KLRG1 [4] worked out at 0.94 nM; in assay [5] it was 0.98 nM. Besides, the binding result with cynomolgus KLRG1 ECD [6] is “binds”. In addition, the IC50 with full length human KLRG1 [7] and in the assay with full length human KLRG1 [8] was 9.6 nM each time.

B5: ABC_G1N04 (antibody, V domains shown)
VH: DVQLVESGGGLVQPGGSRKLSCAASGFSFSTFGMHWVRQVPEKGLEWVAYISSGSYSIFYADSVKGRFTISRDNPKNTLFLQMTSLRSEDTAIYYCTRTRDSGSSPHYFDYWGQGTTVTVSS
VL: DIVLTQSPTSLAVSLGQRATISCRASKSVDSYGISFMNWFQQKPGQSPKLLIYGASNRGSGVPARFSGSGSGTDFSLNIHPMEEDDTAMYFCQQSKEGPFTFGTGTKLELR
notes: as for B2
As to B5, in the assay with full length human KLRG1 [2], the “IFNγ released (pg/ml), Sample 1” value was found to be 987 pg/mL and the “IFNγ released (pg/ml), Sample 2” value was 1000 pg/mL. Besides, the EC50 in the assay with full length human KLRG1 [4] was found to be 29 nM. Moreover, the EC50 in assay [5] is 0.47 nM. In the assay with cynomolgus KLRG1 ECD [6], the binding result is reported as “binds”.

B6: HIS tagged recombinant E-cadherin (ligand)
chain: DWVIPPISCPENEKGPFPKNLVQIKSNKDKEGKVFYSITGQGADTPPVGVFIIERETGWLKVTEPLDRERIATYTLFSHAVSSNGNAVEDPMEILITVTDQNDNKPEFTQEVFKGSVMEGALPGTSVMEVTATDADDDVNTYNAAIAYTILSQDPELPDKNMFTINRNTGVISVVTTGLDRESFPTYTLVVQAADLQGEGLSTTATAVITVTDTNDNPPIFNPTTYKGQVPENEANVVITTLKVTDADAPNTPAWEAVYTILNDDGGQFVVTTNPVNNDGILKTAKGLDFEAKQQYILHVAVTNVVPFEVSLTTSTATVTVDVLDVNEAPIFVPPEKRVEVSEDFGVGQEITSYTAQEPDTFMEQKITYRIWRDTANWLEINPDTGAISTRAELDREDFEHVKNSTYTALIIATDNGSPVATGTGTLLLILSDVNDNAPIPEPRTIFFCERNPKPQVINIIDADLPPNTSPFTAELTHGASANWTIQYNDPTQESIILKPKMALEVGDYKINLKLMDNQNKDQVTTLEVSVCDCEGAAGVCRKAQPVEAGLQIPA
notes: also called human E-cadherin; not shown: HIS tag
For the molecule B6, the response with full length human KLRG1 [9] was half-maximal at 1000 nM (EC50). This counts as single-digit micromolar.

B7: ABC_G1N03 (antibody, V domains shown)
VH: QVHLQQSGPELVKPGASVKLSCKASGDTFTTYDITWVKQRPGQGLEWIGWIYPKDGRTQNSEKFKDKATLTVDTSSTTAYMELHSLTSEDSAVYFCARRGQFGPYFDHWGQGSTLTVSS
VL: VIQMTQSSSFLSASLGGRVSITCRASDHIYNWLAWYQQKPGNAPRLLISGATSLETGIPSRFSGGGSGKDYTLTIISLQTEDIASYYCQQYWNTPPTFGGGTKVEIK
notes: as for B2
As to B7, the “IFNγ released (pg/ml), Sample 1” value with full length human KLRG1 [2] is 934 pg/mL. Moreover, in the assay with full length human KLRG1 [2], the “IFNγ released (pg/ml), Sample 2” value was determined as 869 pg/mL. For the same molecule, the EC50 was determined as 1.3 nM with full length human KLRG1 [4] and 1.06 nM in [5]. For the same molecule, the binding result in the assay with cynomolgus KLRG1 ECD [6] is on record as “binds”.

B8: ABC_HG1N01 (antibody, IgG1, V domains shown)
VH: QVILKESGPGLVKPTQTLTLTCTFSGFSLTTFGMGIGWIRQPPGKALEWLAHIWWNDDKSYNSALKSRLTISKDTSKNQVVLTMTNMDPVDTATYYCARTIYYGNYLTFYAMEHWGQGTTVTVSS
VL: DILMTQSPLSLPVTPGEPASISCRSSQNIVHSNGNTYLEWYLQKPGQSPRLLIYKVSNRFSGVPDRFSGSGSGTDFTLKISRVEAEDVGVYYCFQGSHVPPTFGAGTKLELKR
Consider B8, for which, in the assay with human KLRG1 ECD, the Kd amounted to 0.125 nM, the koff was determined as 0.000287 s⁻¹ and the kon stood at 2.29e+06 M⁻¹ s⁻¹. In the assay with cynomolgus KLRG1 ECD [1], this molecule registered a Kd of 0.0617 nM, a koff of 4.1e-05 s⁻¹ and a kon of 664000 M⁻¹ s⁻¹.

B9: ABC_HG1N02 (antibody, IgG1, V domains shown)
VH: QVTLKESGPGLVKPTQTLTLTCTFSGFSLSTFGMGVGWIRQPPGKALEWLAHIWWDDDKWYELALKSRLTISKDSSKNQVVLTMTNMDPVDTATYYCARVIYYGSRSAYYSMDYWGPGTTVTVSS
VL: DILMTQSPLSLPVTPGEPASISCKSSQSIVHSNGHTYLEWYLQKPGQSPRLLIYKVSNRFSGVPDRFSGSGSGTDFTLKISRVEAEDVGVYYCFQGSHVPVTFGAGTKLELKR
In the assay with human KLRG1 ECD, B9 gave a Kd of 0.243 nM, a koff of 0.000681 s⁻¹ and a kon of 2.8e+06 M⁻¹ s⁻¹. In the assay with cynomolgus KLRG1 ECD [1], this molecule showed a Kd of 0.0647 nM, a koff of 4.07e-05 s⁻¹ and an on-rate (kon) of 630000 M⁻¹ s⁻¹.

The values above are taken from patent US20210347899A1 (BRIGHAM AND WOMEN S HOSPITAL, published 2021).
